B1: Hairpin Ribozyme (parent)
chain: GUCCUCUUUCACGUGCGCGUGAAAGAGAGAAGUGAACCAGAGAAACACACGUUGUGGUAUAUUACCUGGUA

Variants of: B1
Experiment: self-cleavage, relative activity (ratio to wild type); higher = more cleavage; co-transcriptional

| Variant | self-cleavage |
| --- | --- |
| C12G A43U | 0.196 |
| C12G A44C | 0.202 |
| C12G A45U | 0.116 |
| C12G A49C | 0.196 |
| C12G A59C | 0.076 |
| C12G A61C | 0.24 |
| C12G A64C | 0.334 |
| C12G A64U | 0.173 |
| C12G A71G | 0.803 |
| C12G C37U | 0.445 |
| C12G C38A | 0.148 |
| C12G C38G | 0.142 |
| C12G C48G | 0.0599 |
| C12G C48U | 0.193 |
| C12G C50G | 0.176 |
| C12G C66A | 0.171 |
| C12G G13C | 0.944 |
| C12G G13U | 0.561 |
| C12G G17C | 0.842 |
| C12G G21A | 0.683 |
| C12G G25A | 0.524 |

| Variant | self-cleavage |
| --- | --- |
| C12G G27C | 0.226 |
| C12G G29A | 0.138 |
| C12G G32A | 0.143 |
| C12G G40C | 0.117 |
| C12G G40U | 0.113 |
| C12G G42A | 0.276 |
| C12G G54C | 0.246 |
| C12G G54U | 0.537 |
| C12G G56C | 0.154 |
| C12G G57A | 0.152 |
| C12G G69C | 0.355 |
| C12G U14C | 0.61 |
| C12G U20G | 0.798 |
| C12G U33A | 0.0646 |
| C12G U52A | 0.922 |
| C12G U55C | 0.216 |
| C12G U55G | 0.322 |
| C12G U58C | 0.762 |
| C12G U58G | 0.502 |
| C12G U60A | 0.748 |
| C12G U62G | 0.21 |

| Variant | self-cleavage |
| --- | --- |
| C12G U63C | 0.296 |
| C12G U67A | 0.202 |
| C12G U67G | 0.215 |
| C12G U70C | 0.699 |
| C12U A23G | 0.965 |
| C12U A23U | 0.807 |
| C12U A24C | 0.721 |
| C12U A24G | 0.892 |
| C12U A26C | 0.481 |
| C12U A26G | 0.796 |
| C12U A26U | 0.591 |
| C12U A28C | 0.437 |
| C12U A28G | 1.19 |
| C12U A28U | 0.583 |
| C12U A30G | 0.173 |
| C12U A31U | 0.112 |
| C12U A35U | 0.743 |
| C12U A36C | 0.674 |
| C12U A39G | 0.297 |
| C12U A41U | 0.928 |
| C12U A44C | 0.184 |

| Variant | self-cleavage |
| --- | --- |
| C12U A59G | 0.116 |
| C12U A59U | 0.182 |
| C12U A61C | 0.24 |
| C12U A64G | 0.564 |
| C12U A64U | 0.241 |
| C12U A71G | 0.797 |
| C12U C18G | 0.832 |
| C12U C18U | 0.978 |
| C12U C37A | 0.282 |
| C12U C38A | 0.143 |
| C12U C48A | 0.107 |
| C12U C50A | 0.314 |
| C12U C50U | 0.431 |
| C12U C65A | 0.88 |
| C12U C65G | 0.2 |
| C12U C65U | 0.348 |
| C12U G15C | 0.897 |
| C12U G17U | 0.69 |
| C12U G19A | 1.02 |
| C12U G21A | 0.748 |

Source: the RNAGym collection of RNA variant scans (doi:10.7554/elife.80360)
